In doi:10.1101/2022.02.15.480489 (bioRxiv, 2022):

Target: the molecule itself
Test: fluorescence correlation spectroscopy

Row | Protein | stoichiometry N
1 | Ana2-mNG (Ana2 tagged with monomeric NeonGreen at the C-terminus, CRISPR/Cas9 knock-in at the endogenous locus) (natural protein) MFVPETEDMLPRLAPRPSAAVPMGHTNEIIGPTVPEVSILFGQPPQDPQMQPQQPNHAHQESSPRAAPTFASWKKQMLPRVNFSPILATELGPRTAPSSNSPCSSKEYQVMPRDRNYASDAQQTTNHMNCNAGGYNAEPKQQAYQSRRLSSSSNADVLTICAGTQTDPFNPSPPRKSLPQVVYSDIDVSNLANKSDLAALVSLVESVRHEQQQLRNLCEMILEQQQRAKPEAISKASSTTGTQCDILTTNQAGRRLSPIMQDYIAEEEEPLPPPQARVIPQFPSPRPHPPIAQSTGYRANTPQAKRIPQLAKPNTEKSMVMNELALKYLRQPVDELMKDMRLGASPKSPNPEPLRPIDNIGHAQSPNDISNASYKYLKKYRLLPEEQLEPVCPQSPMAATAPSPHIQLDLENIRNQPKLL | ~2
2 | mNG-Ana2 (Ana2 tagged with monomeric NeonGreen at the N-terminus, CRISPR/Cas9 knock-in at the endogenous locus) (natural protein) MFVPETEDMLPRLAPRPSAAVPMGHTNEIIGPTVPEVSILFGQPPQDPQMQPQQPNHAHQESSPRAAPTFASWKKQMLPRVNFSPILATELGPRTAPSSNSPCSSKEYQVMPRDRNYASDAQQTTNHMNCNAGGYNAEPKQQAYQSRRLSSSSNADVLTICAGTQTDPFNPSPPRKSLPQVVYSDIDVSNLANKSDLAALVSLVESVRHEQQQLRNLCEMILEQQQRAKPEAISKASSTTGTQCDILTTNQAGRRLSPIMQDYIAEEEEPLPPPQARVIPQFPSPRPHPPIAQSTGYRANTPQAKRIPQLAKPNTEKSMVMNELALKYLRQPVDELMKDMRLGASPKSPNPEPLRPIDNIGHAQSPNDISNASYKYLKKYRLLPEEQLEPVCPQSPMAATAPSPHIQLDLENIRNQPKLL | ~2
